Measured values as given in IntAct's records for PubMed 9653157.

B1: Cell division control protein 18 (Schizosaccharomyces pombe (strain ATCC 38366 / 972)), P41411 (parent)
chain: MCETPIGCHTPRRCNRFIDSAALIDCTNKTNQREHSPSFSIEIPTTPSRKRTLASSHFQTPTKRIKYELGELQEEKTDLYPNFPAQLKENKKPKLPTTPQTPKTPKRTIQIVTPKSLNRTCNPVPFATRLLQSTPHRQLFPPTPSTPSTPSYNSTAKLSLRKSYRSAGVVGRENEKSIVESFFRQHLDANAGGALYVSGAPGTGKTVLLHNVLDHVVSDYPKVNVCYINCMTINEPKAIFEKIHSKIVKEEILENEDHHINFQCELESHFTQSANELYNPVIIVLDEMDHLIAREQQVLYTLFEWPSRPTSRLILVGIANALDMTDRFLPRLRTKHITPKLLSFTPYTAQEISTIIKARLKTAATTSEKNNPFTPIKSISEVSDDSINVVSQHADETPFIHPAAIELCARKVAASSGDLRKALDICRHAIELAEREWKAQHDNTLSSVDIPRASIAHVVRATSAMSQSASARLKNLGLQQKAILCTLVVCEKTSLSVADVFEKYSSLCLRDRLIYPLTSSEFCDVANSLETLAIIRLRTKQRNGKPQDRIISLLVPEMDVITAVGDIGTLKRFFDRR
partner: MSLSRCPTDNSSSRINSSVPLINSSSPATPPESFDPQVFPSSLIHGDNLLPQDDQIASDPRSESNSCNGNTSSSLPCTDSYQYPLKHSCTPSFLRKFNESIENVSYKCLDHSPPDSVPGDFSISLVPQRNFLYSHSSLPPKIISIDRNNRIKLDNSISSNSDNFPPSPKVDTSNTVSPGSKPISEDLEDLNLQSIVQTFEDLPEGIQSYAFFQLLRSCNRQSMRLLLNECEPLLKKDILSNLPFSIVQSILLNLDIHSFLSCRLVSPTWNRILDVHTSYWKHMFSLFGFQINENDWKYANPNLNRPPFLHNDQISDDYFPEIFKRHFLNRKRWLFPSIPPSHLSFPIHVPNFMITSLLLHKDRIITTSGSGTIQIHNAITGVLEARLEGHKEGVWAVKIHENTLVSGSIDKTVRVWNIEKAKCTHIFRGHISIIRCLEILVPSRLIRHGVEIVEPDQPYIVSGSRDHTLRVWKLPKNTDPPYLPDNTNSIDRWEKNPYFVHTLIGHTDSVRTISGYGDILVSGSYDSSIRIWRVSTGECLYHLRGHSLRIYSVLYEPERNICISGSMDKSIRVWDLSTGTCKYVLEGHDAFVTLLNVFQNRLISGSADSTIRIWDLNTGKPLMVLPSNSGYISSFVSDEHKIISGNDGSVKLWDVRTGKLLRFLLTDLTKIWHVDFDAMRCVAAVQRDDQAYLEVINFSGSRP

Variants of: B1
Conditions: with pop2_schpo pop2, O14170

Row | Variant | effect of a mutation on the interaction
1 | T4A;T10A;T46A;T60A;T101A;T104A | disrupting interaction
